Data from article PMC12636523.

Target: cleaved SVS-Dlp (SVS-Dlp coexpressed with Mmp2-FLAG, cleaved in the N-terminal polypeptide) (Drosophila)
Assay: co-IP; S2R+ cells cotransfected with SVS-dlp and a Wnt, with or without Mmp2-FLAG; clarified lysate (2 mM Tris HCl, 150 mM NaCl, 1% NP-40 substitute, 1 mM EDTA, 5% glycerol, pH 7.4) on GFP-Trap Magnetic Agarose beads, 30 min at 4°C; Western blot under reducing conditions

fold increase of Wnt pulled down against uncleaved Dlp (median)	fold increase of Wg pulled down, normalized to the amount of Dlp, against uncleaved Dlp (median)	Molecule
2.7 fold		Wnt6-3XHA (ligand)
5.9 fold		Wnt4-3XFLAG (ligand) QVRNEDQLLMVGQNGDLDSSNPAIHHQQHQQHQQHQQHQQHQSNHNLNNGNMNSTILNTLMGNNAGQVVNSSPGGGGSMINQLGSSTSSVPSVIGGGVGSVGNPWHSAVGLGVPGNGMGLPSSHGLGGNMGSHPHGHALAGLAKLGIIVPGGQGLPGNLGYGGTMLNGGGVGGAAGMGLGIGSNTNNMDMQQGLYNEHFISEHTVMAVFTSQGQVGGPCRYMPATRRQNHQCRKETGLPGTLSEARRLATTHCEEQFRYDRWNCSIETRGKRNIFKKLYKETAFVHALTAAAMTHSIARACAEGRMTKCSCGPKKHNREAQDFQWGGCNDNLKHGKRVTRSFLDLRGGDGDEVSEILRHDSEVGIEAVSSQMMDKCKCHGVSGSCSMKTCWKKMADFNATATLLRQKYNEAIRKAPNQRSMRQVSSSRMKKPKQRRKKPQQSQYTTLYYLETSPSYCAVTKDRQCLHPDNCGTLCCGRGYTTQVVKQVEKCRCRFNNGRCCQLICDYCQRLENKYFCK
	2.7 fold	Wg-HA (Wingless with 3XHA tag) (ligand) GSSLSQVEGKQKSGRGRGSMWWGIAKVGEPNNITPIMYMDPAIHSTLRRKQRRLVRDNPGVLGALVKGANLAISECQHQFRNRRWNCSTRNFSRGKNLFGKIVDRGCRETSFIYAITSAAVTHSIARACSEGTIESCTCDYSHQSRSPQANHQAGSVAGVRDWEWGGCSDNIGFGFKFSREFVDTGERGRNLREKMNLHNNEAGRAHVQAEMRQECKCHGMSGSCTVKTCWMRLANFRVIGDNLKARFDGATRVQVTNSLRATNALAPVSPNAAGSNSVGSNGLIIPQSGLVYGEEEERMLNDHMPDILLENSHPISKIHHPNMPSPNSLPQAGQRGGRNGRRQGRKHNRYHFQLNPHNPEHKPPGSKDLVYLEPSPSFCEKNLRQGILGTHGRQCNETSLGVDGCGLMCCGRGYRRDEVVVVERCACTFHWCCEVKCKLCRTKKVIYTCL
6.2 fold		Wnt2-3XHA (ligand) FTSVMLCGRIPGLTPGQRNMCREMPDALIALGEGHQLGAQECQHQFRGHRWNCSEVWQRNVFAHVIPTASREAAYTYAIASAGAAYAVTAACARGNISTCGCDVRHKATPTGGGTPDEPWKWGGCSADVDFGMRYARRFMDARELERDSRTLMNLHNNRAGRTLVKKMLRTDCKCHGVSGSCVMKTCWKSLPPFRLVGDRLMLKYQKAKTVQAVKGKRGLRLVLSRKKHAGTARAQKPVLDWPKRMELIYLEASPNYCERSLQTGSQGTSGRTCQRTGHGPQSCDLLCCGRGHNTQHIRRTTQCRCQFRWCCEVKCDECDESYEEFTCK
